Test results from patent US20160264649A1.

What was measured:
Assay in all cases: cell-based or functional assay
HIV-1 DU422 Env (HIV-1) = biological target: HIV-1 DU422 Env (HIV-1)
[1] = biological target: HIV-1 REJ04541 Env (HIV-1)
HIV-1 TR0.11 Env (HIV-1) = biological target: HIV-1 TR0.11 Env (HIV-1)
[2] = biological target: HIV-1 JR-FL Env E168K (HIV-1)
HIV-1 ADA Env (HIV-1) = biological target: HIV-1 ADA Env (HIV-1)
HIV-1 ZM249 Env (HIV-1) = biological target: HIV-1 ZM249 Env (HIV-1)
HIV-1 DU156 Env (HIV-1) = biological target: HIV-1 DU156 Env (HIV-1)
HIV-1 Du172 Env (HIV-1) = biological target: HIV-1 Du172 Env (HIV-1)
HIV-1 CAAN Env (HIV-1) = biological target: HIV-1 CAAN Env (HIV-1)
[3] = biological target: HIV-1 92RW020 Env (HIV-1)
HIV-1 ZM233 Env (HIV-1) = biological target: HIV-1 ZM233 Env (HIV-1)
[4] = biological target: MuLV envelope (control pseudovirus)
[5] = biological target: HIV-1 JR-CSF Env I309A (HIV-1) (UniProt P20871)
HIV-1 ZM214 Env (HIV-1) = biological target: HIV-1 ZM214 Env (HIV-1)
[6] = biological target: HIV-1 JR-CSF Env (wild-type) (HIV-1) (UniProt P20871)
HIV-1 CAP45 Env (HIV-1) = biological target: HIV-1 CAP45 Env (HIV-1)
HIV-1 PVO.4 Env (HIV-1) = biological target: HIV-1 PVO.4 Env (HIV-1)
HIV-1 AC10 Env (HIV-1) = biological target: HIV-1 AC10 Env (HIV-1)
[7] = biological target: HIV-1 THRO.18 Env (HIV-1)
[8] = biological target: HIV-1 JR-CSF Env Y318A (HIV-1) (UniProt P20871)

Binder | IC50, TZM-bl pseudovirus neutralization (HIV-1 DU422 Env (HIV-1)) [µg/mL] | IC50, TZM-bl pseudovirus neutralization [1] [µg/mL] | IC50, TZM-bl pseudovirus neutralization (HIV-1 TR0.11 Env (HIV-1)) [µg/mL] | IC50, TZM-bl pseudovirus neutralization [2] [µg/mL] | IC50, TZM-bl pseudovirus neutralization (HIV-1 ADA Env (HIV-1)) [µg/mL] | IC50, TZM-bl pseudovirus neutralization (HIV-1 ZM249 Env (HIV-1)) [µg/mL] | IC50, TZM-bl pseudovirus neutralization (HIV-1 DU156 Env (HIV-1)) [µg/mL] | IC50, TZM-bl pseudovirus neutralization (HIV-1 Du172 Env (HIV-1)) [µg/mL] | IC50, TZM-bl pseudovirus neutralization (HIV-1 CAAN Env (HIV-1)) [µg/mL] | IC50, TZM-bl pseudovirus neutralization [3] [µg/mL] | IC50, TZM-bl pseudovirus neutralization (HIV-1 ZM233 Env (HIV-1)) [µg/mL] | IC50, TZM-bl pseudovirus neutralization [4] [µg/mL] | IC50, TZM-bl pseudovirus neutralization [5] [µg/mL] | IC50, TZM-bl pseudovirus neutralization (HIV-1 ZM214 Env (HIV-1)) [µg/mL] | IC50, TZM-bl pseudovirus neutralization [6] [µg/mL] | IC50, TZM-bl pseudovirus neutralization (HIV-1 CAP45 Env (HIV-1)) [µg/mL] | IC50, TZM-bl pseudovirus neutralization (HIV-1 PVO.4 Env (HIV-1)) [µg/mL] | IC50, TZM-bl pseudovirus neutralization (HIV-1 AC10 Env (HIV-1)) [µg/mL] | IC50, TZM-bl pseudovirus neutralization [7] [µg/mL] | IC50, TZM-bl pseudovirus neutralization [8] [µg/mL]
1503_H05 (PG16) (TCN-119) (antibody, V domains shown) VH: QEKLVESGGGVVQPGGSLRLSCLASGFTFHKYGMHWVRQAPGKGLEWVALISDDGMRKYHSDSMWGRVTISRDNSKNTLYLQFSSLKVEDTAMFFCAREAGGPIWHDDVKYYDFNDGYYNYHYMDVWGKGTIVTVSS VL: QSALTQPASVSGSPGQTITISCNGTRSDVGGFDSVSWYQQSPGKAPKVMVFDVSHRPSGISNRFSGSKSGNTASLTISGLHIEDEGDYFCSSLTDRSHRIFGGGTKVTVLG | 0.71 | 0.22 | 4.3 | 0.002 | 0.003 | < 0.01 | < 0.01 | < 0.01 | 13.5 | 0.02 | < 0.01 | > 25 | > 1 | > 25 | 0.001 | < 0.01 | 11 | < 0.01 | 4.12 | > 1
1456_A12 (PG16) (TCN-117) (antibody, V domains shown) VH: HEQLVEAGGGVVQPGGSLRLSCLASGFTFHKYGMHWVRQAPGKGLEWVALISDDGMRKYHSDSMWGRVTISRDNSKNTLYLQFSSLRVEDTAMFFCAREAGGPIWHDDVKYYDFNDGYYNYHYMDVWGKGTKVTVSS VL: QSALTQPASVSGSPGQTITISCNGTSRDVGGFDSVSWYQQSPGKAPKVMVFDVSHRPSGMSNRFSGSKSGNTASLTISGLHIEDEGDYFCSSLTDRSHRIFGGGTKLTVLG | 0.36 | < 0.01 | 3.05 | 0.003 | 0.005 | < 0.01 | < 0.01 | < 0.01 | 10.6 | 0.05 | < 0.01 | > 25 | > 1 | > 25 | 0.001 | < 0.01 | 10.4 | < 0.01 | 2.08 | > 1
1489_I13 (PG16) (TCN-120) (antibody, V domains shown) VH: QEQLLESGGGVVQPGGSLRLSCLASGFTFHKYGMHWVRQAPGKGLEWVALISDDGMRKYHSNSMWGRVTISRDNSKNTLYLQFSSLKVEDTAMFFCAREAGGPIWHDDVKYYDFNDGYYNYHYMDVWGKGTTVTVSS VL: QSALTQPASVSGSPGQTITISCNGTSSDVGGFDSVSWYQQSPGKAPKVMVFDVSHRPSGISNRFSGSKSGNTASLTISGLHIEDEGDYFCSSLTDRSHRIFGGGTKVTVLG | 1.87 | 0.34 | 10.9 | 0.005 | 0.008 | < 0.01 | < 0.01 | < 0.01 | 24.9 | 0.03 | < 0.01 | > 25 | > 1 | > 25 | 0.002 | < 0.01 | 20.6 | < 0.01 | 7.41 | > 1
1469_M23 (PG16) (TCN-118) (antibody, V domains shown) VH: QEKLVESGGGVVQPGGSLRLSCLASGFTFHKYGMHWVRQAPGKGLEWVALISDDGMRKYHSDSMWGRVTISRDNSKNTLYLQFSSLKVEDTAMFFCAREAGGPIWHDDVKYYDFNDGYYNYHYMDVWGKGTTVTVSS VL: QSALTQPASVSGSPGQTITISCNGTRSDVGGFDSVSWYQQSPGRAPKVMVFDVSHRPSGISNRFSGSKSGNTASLTISGLHIEDEGDYFCSSLTDRSHRIFGGGTKLTVLG | 0.97 | 0.39 | 7.52 | 0.005 | 0.005 | < 0.01 | < 0.01 | < 0.01 | 17.7 | 0.05 | < 0.01 | > 25 | > 1 | > 25 | 0.002 | < 0.01 | 21.2 | < 0.01 | 7.01 | > 1
